# Source: patent publication US20230203467A1
# What was measured:
# [1] = biological target: VEGFR-2 receptor on transfected endothelial cells (PAE/VEGFR-2) (UniProt P35968); assay: cell-based or functional assay
# [2] = biological target: VEGFR-1 on transfected endothelial cells (PAE/VEGFR-1) (UniProt P17948); assay: cell-based or functional assay
# Sequence of UniProt P17948 (P17948 27-1338 limits assumed): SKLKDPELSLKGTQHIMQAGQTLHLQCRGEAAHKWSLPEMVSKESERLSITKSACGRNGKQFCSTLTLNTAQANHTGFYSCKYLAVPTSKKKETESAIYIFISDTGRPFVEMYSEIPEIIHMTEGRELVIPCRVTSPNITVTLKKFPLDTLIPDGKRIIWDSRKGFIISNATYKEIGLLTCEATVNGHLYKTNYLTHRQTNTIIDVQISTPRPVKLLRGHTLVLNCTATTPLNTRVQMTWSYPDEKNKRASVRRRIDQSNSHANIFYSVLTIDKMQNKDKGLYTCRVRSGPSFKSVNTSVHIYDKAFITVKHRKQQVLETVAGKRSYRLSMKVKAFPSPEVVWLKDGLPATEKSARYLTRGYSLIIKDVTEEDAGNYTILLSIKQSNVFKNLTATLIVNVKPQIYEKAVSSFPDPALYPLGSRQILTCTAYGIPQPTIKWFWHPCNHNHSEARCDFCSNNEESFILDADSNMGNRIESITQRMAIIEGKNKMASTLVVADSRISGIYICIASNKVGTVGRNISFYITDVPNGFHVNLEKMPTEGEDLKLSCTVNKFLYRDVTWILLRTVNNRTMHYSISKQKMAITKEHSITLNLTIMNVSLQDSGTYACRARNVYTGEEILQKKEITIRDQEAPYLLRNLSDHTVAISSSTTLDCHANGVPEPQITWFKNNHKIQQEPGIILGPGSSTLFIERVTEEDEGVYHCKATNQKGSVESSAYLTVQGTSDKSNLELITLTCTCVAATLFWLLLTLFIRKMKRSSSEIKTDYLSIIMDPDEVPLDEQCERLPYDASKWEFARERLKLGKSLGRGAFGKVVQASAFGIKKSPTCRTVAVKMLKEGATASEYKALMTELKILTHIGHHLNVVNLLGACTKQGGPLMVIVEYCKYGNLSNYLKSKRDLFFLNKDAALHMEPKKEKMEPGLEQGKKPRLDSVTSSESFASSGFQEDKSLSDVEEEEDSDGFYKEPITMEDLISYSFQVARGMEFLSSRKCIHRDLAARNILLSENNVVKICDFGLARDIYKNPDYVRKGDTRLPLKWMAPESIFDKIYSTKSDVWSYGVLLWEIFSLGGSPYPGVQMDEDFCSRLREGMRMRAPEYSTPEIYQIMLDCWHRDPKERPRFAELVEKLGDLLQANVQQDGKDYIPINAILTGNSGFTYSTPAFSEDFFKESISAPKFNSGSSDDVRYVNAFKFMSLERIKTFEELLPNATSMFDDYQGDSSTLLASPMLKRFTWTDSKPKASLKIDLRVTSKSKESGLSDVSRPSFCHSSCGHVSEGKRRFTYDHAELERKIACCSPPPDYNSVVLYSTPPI
Substance,"IC50 nM, cytotoxicity on PAE/VEGFR-2 (+) cells [1]","IC50 (nM) on PEA/VEGFR-2 cells, construct pre-incubated in FBS (4 h) [1]","IC50 (nM) on PEA/VEGFR-2 cells, construct pre-incubated in PBS (4 h) [1]","IC50 nM, cytotoxicity on PAE/VEGFR-1 (-) control cells [2]","IC50 (nM) on PEA/VEGFR-1 cells, construct pre-incubated in FBS (4 h) [2]","IC50 (nM) on PEA/VEGFR-1 cells, construct pre-incubated in PBS (4 h) [2]"
GrB/VEGF121 (from UniProt P15692 27-147),15.3 nM,> 100 nM,4 nM,> 1000 nM,> 100 nM,> 100 nM
PVPN-GrB/VEGF121 (from UniProt P15692 27-147),–,–,8 nM,–,–,> 100 nM
LA-GrB/VEGF121 (from UniProt P15692 27-147),–,63 nM,8 nM,–,> 100 nM,> 100 nM
EA-GrB/VEGF121 (from UniProt P15692 27-147),–,39 nM,8 nM,–,> 100 nM,> 100 nM
LP-GrB/VEGF121 (from UniProt P15692 27-147),–,67 nM,2 nM,–,> 100 nM,> 100 nM
EAPVPN-GrB/VEGF121 (from UniProt P15692 27-147),–,–,5 nM,–,–,> 100 nM
